Data on 1 substance can be found in patent US20150299328A1.

This test addresses HIR extracellular domain (ECD) (human) (UniProt P06213). The test can be described thus: ELISA, HIR ECD plated.

pEC50: −log10 of the molar value.

Broadly, the pEC50 is the negative decadic logarithm of the EC50, by convention in mol/L. In the case of “CHO-derived HIRMAb-IDUA fusion protein (antibody)”, the negative logarithm of the EC50 (pEC50) was 9.12.
